Consider five sequences from the supplement of paper PMC5998384.

For data set [1], the system named is HeLa Kyoto. Description: solubility in G1/S (NP-40 vs SDS abundance) (log2 ratio); higher = more soluble. To be noted: cell cycle stage: G1/S.
The subject of data set [2] is HeLa Kyoto. Description: melting temperature (median over replicates), in situ; higher = more thermally stable.
In data set [3] the test system is HeLa Kyoto. Description: solubility change mitosis vs G1/S (difference of NP-40 vs SDS log2 ratios) (log2 ratio difference); higher = more soluble in mitosis.
The test system of data set [4] is HeLa Kyoto. Description: thermal stability score vs G1/S (z-score of summed log2 fold changes over temperatures); higher = more thermally stable than in G1/S.
Where [5] appears, read: cell cycle stage: early G1 (4.5 h after nocodazole release).
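For melting temperature (median over replicates), in situ in this document: HeLa Kyoto cells synchronized by double thymidine or nocodazole block, proteins quantified by TMT10plex mass spectrometry, three independent biological replicates.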
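For solubility change mitosis vs G1/S (difference of NP-40 vs SDS log2 ratios) in this document: synchronized HeLa Kyoto cells (double thymidine block for G1/S, nocodazole release for mitosis), protein amounts in NP-40 versus SDS lysates quantified by mass spectrometry, three biological replicates.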
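For solubility in G1/S (NP-40 vs SDS abundance) in this document: HeLa Kyoto cells arrested at G1/S by double thymidine block, proteins quantified by TMT10plex mass spectrometry in mild NP-40 versus SDS extracts, three biological replicates.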
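For thermal stability score vs G1/S (z-score of summed log2 fold changes over temperatures) in this document: synchronized HeLa Kyoto cells, proteins quantified by TMT10plex mass spectrometry, three biological replicates, mitosis taken 0.5 h after nocodazole release, G1/S directly after double thymidine block.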

Take “MSRCAQAAEVAATVPGAGVGNVGLRPPMVPRQASFFPPPVPNPFVQQTQIGSARRVQIVLLGIILLPIRVLLVALILLLAWPFAAISTVCCPEKLTHPITGWRRKITQTALKFLGRAMFFSMGFIVAVKGKIASPLEAPVFVAAPHSTFFDGIACVVAGLPSMVSRNENAQVPLIGRLLRAVQPVLVSRVDPDSRKNTINEIIKRTTSGGEWPQILVFPEGTCTNRSCLITFKPGAFIPGVPVQPVLLRYPNKLDTVTWTWQGYTFIQLCMLTFCQLFTKVEVEFMPVQVPNDEEKNDPVLFANKVRNLMAEALGIPVTDHTYEDCRLMISAGQLTLPMEAGLVEFTKISRKLKLDWDGVRKHLDEYASIASSSKGGRIGIEEFAKYLKLPVSDVLRQLFALFDRNHDGSIDFREYVIGLAVLCNPSNTEEIIQVAFKLFDVDEDGYITEEEFSTILQASLGVPDLDVSGLFKEIAQGDSISYEEFKSFALKHPEYAKIFTTYLDLQTCHVFSLPKEVQTTPSTASNKVSPEKHEESTSDKKDD [LPCAT2]”: the “solubility in G1/S (log2)” value with HeLa Kyoto [1] is -0.00721. The melting temperature in the data set on HeLa Kyoto [2] (cell cycle stage: G1/S) came to 51.3 °C; with HeLa Kyoto [2] (cell cycle stage: mitosis) it was 52.5 °C. For the same sequence, the “solubility change mitosis (log2)” value in the data set with HeLa Kyoto [3] is -0.289. For the same sequence, the thermal stability score is 1.39 in the data set on HeLa Kyoto [4] (setting [5]) and 1.37 in the data set with HeLa Kyoto [4] (cell cycle stage: mitosis).

In the case of “MATATIALQVNGQQGGGSEPAAAAAVVAAGDKWKPPQGTDSIKMENGQSTAAKLGLPPLTPEQQEALQKAKKYAMEQSIKSVLVKQTIAHQQQQLTNLQMAAVTMGFGDPLSPLQSMAAQRQRALAIMCRVYVGSIYYELGEDTIRQAFAPFGPIKSIDMSWDSVTMKHKGFAFVEYEVPEAAQLALEQMNSVMLGGRNIKVGRPSNIGQAQPIIDQLAEEARAFNRIYVASVHQDLSDDDIKSVFEAFGKIKSCTLARDPTTGKHKGYGFIEYEKAQSSQDAVSSMNLFDLGGQYLRVGKAVTPPMPLLTPATPGGLPPAAAVAAAAATAKITAQEAVAGAAVLGTLGTPGLVSPALTLAQPLGTLPQAVMAAQAPGVITGVTPARPPIPVTIPSVGVVNPILASPPTLGLLEPKKEKEEEELFPESERPEMLSEQEHMSISGSSARHMVMQKLLRKQESTVMVLRNMVDPKDIDDDLEGEVTEECGKFGAVNRVIIYQEKQGEEEDAEIIVKIFVEFSIASETHKAIQALNGRWFAGRKVVAEVYDQERFDNSDLSA [PUF60]”, the “solubility in G1/S (log2)” value in the data set with HeLa Kyoto [1] came out at 0.0524. In addition, the melting temperature with HeLa Kyoto [2] (cell cycle stage: G1/S) is 49.1 °C; in the data set on HeLa Kyoto [2] (cell cycle stage: mitosis) it was 50.6 °C. Besides, in the data set on HeLa Kyoto [3], the “solubility change mitosis (log2)” value is 0.0253. Also, the thermal stability score in the data set on HeLa Kyoto [4] (setting [5]) was determined as 1.71; in the data set with HeLa Kyoto [4] (cell cycle stage: mitosis) it was 5.96.

Turning to “MPAGPVQAVPPPPPVPTEPKQPTEEEASSKEDSAPSKPVVGIIYPPPEVRNIVDKTASFVARNGPEFEARIRQNEINNPKFNFLNPNDPYHAYYRHKVSEFKEGKAQEPSAAIPKVMQQQQQTTQQQLPQKVQAQVIQETIVPKEPPPEFEFIADPPSISAFDLDVVKLTAQFVARNGRQFLTQLMQKEQRNYQFDFLRPQHSLFNYFTKLVEQYTKILIPPKGLFSKLKKEAENPREVLDQVCYRVEWAKFQERERKKEEEEKEKERVAYAQIDWHDFVVVETVDFQPNEQGNFPPPTTPEELGARILIQERYEKFGESEEVEMEVESDEEDDKQEKAEEPPSQLDQDTQVQDMDEGSDDEEEGQKVPPPPETPMPPPLPPTPDQVIVRKDYDPKASKPLPPAPAPDEYLVSPITGEKIPASKMQEHMRIGLLDPRWLEQRDRSIREKQSDDEVYAPGLDIESSLKQLAERRTDIFGVEETAIGKKIGEEEIQKPEEKVTWDGHSGSMARTQQAAQANITLQEQIEAIHKAKGLVPEDDTKEKIGPSKPNEIPQQPPPPSSATNIPSSAPPITSVPRPPTMPPPVRTTVVSAVPVMPRPPMASVVRLPPGSVIAPMPPIIHAPRINVVPMPPSAPPIMAPRPPPMIVPTAFVPAPPVAPVPAPAPMPPVHPPPPMEDEPTSKKLKTEDSLMPEEEFLRRNKGPVSIKVQVPNMQDKTEWKLNGQVLVFTLPLTDQVSVIKVKIHEATGMPAGKQKLQYEGIFIKDSNSLAYYNMANGAVIHLALKERGGRKK [SF3A1]”, the “solubility in G1/S (log2)” value with HeLa Kyoto [1] is -0.0723. In addition, the melting temperature in the data set on HeLa Kyoto [2] (cell cycle stage: G1/S) was found to be 49.8 °C; in the data set on HeLa Kyoto [2] (cell cycle stage: mitosis), 50.2 °C. Moreover, the “solubility change mitosis (log2)” value in the data set with HeLa Kyoto [3] was 0.18. Besides, the results for the thermal stability score with HeLa Kyoto [4] (setting [5]) and in the data set with HeLa Kyoto [4] (cell cycle stage: mitosis) were -0.95 and 1.92, respectively.

Turning to “MDTKEEKKERKQSYFARLKKKKQAKQNAETASAVATRTHTGKEDNNTVVLEPDKCNIAVEEEYMTDEKKKRKSNQLKEIRRTELKRYYSIDDNQNKTHDKKEKKMVVQKPHGTMEYTAGNQDTLNSIALKFNITPNKLVELNKLFTHTIVPGQVLFVPDANSPSSTLRLSSSSPGATVSPSSSDAEYDKLPDADLARKALKPIERVLSSTSEEDEPGVVKFLKMNCRYFTDGKGVVGGVMIVTPNNIMFDPHKSDPLVIENGCEEYGLICPMEEVVSIALYNDISHMKIKDALPSDLPQDLCPLYRPGEWEDLASEKDINPFSKFKSINKEKRQQNGEKIMTSDSRPIVPLEKSTGHTPTKPSGSSVSEKLKKLDSSRETSHGSPTVTKLSKEPSDTSSAFESTAKENFLGEDDDFVDLEELSSQTGGGMHKKDTLKECLSLDPEERKKAESQINNSAVEMQVQSALAFLGTENDVELKGALDLETCEKQDIMPEVDKQSGSPESRVENTLNIHEDLDKVKLIEYYLTKNKEGPQVSENLQKTELSDGKSIEPGGIDITLSSSLSQAGDPITEGNKEPDKTWVKKGEPLPVKLNSSTEANVIKEALDSSLESTLDNSCQGAQMDNKSEVQLWLLKRIQVPIEDILPSKEEKSKTPPMFLCIKVGKPMRKSFATHTAAMVQQYGKRRKQPEYWFAVPRERVDHLYTFFVQWSPDVYGKDAKEQGFVVVEKEELNMIDNFFSEPTTKSWEIITVEEAKRRKSTCSYYEDEDEEVLPVLRPHSALLENMHIEQLARRLPARVQGYPWRLAYSTLEHGTSLKTLYRKSASLDSPVLLVIKDMDNQIFGAYATHPFKFSDHYYGTGETFLYTFSPHFKVFKWSGENSYFINGDISSLELGGGGGRFGLWLDADLYHGRSNSCSTFNNDILSKKEDFIVQDLEVWAFD [NCOA7]”, the “solubility in G1/S (log2)” value in the data set with HeLa Kyoto [1] was 0.0391. Further, the melting temperature in the data set with HeLa Kyoto [2] (cell cycle stage: G1/S) was found to be 51 °C; in the data set with HeLa Kyoto [2] (cell cycle stage: mitosis), 50.9 °C. The “solubility change mitosis (log2)” value with HeLa Kyoto [3] is -0.15. For the same sequence, the thermal stability score with HeLa Kyoto [4] (setting [5]) was -0.286; in the data set with HeLa Kyoto [4] (cell cycle stage: mitosis) it was -0.429.

With “MEEHSYIQKELDLQNGSLEEDSVVHSVENDSQNMMESLSPKKYSSSLRFKANGDYSGSYLTLSQPVPAKRSPSPLGTSVRSSPSLAKIQGSKQFSYDGTDKNIPMKPPTPLLNTTSSLSGYPLGRADFDHYTGRDSERALRLSEKPPYSKYSSRHKSHDNVYSLGGLEGRKASGSLLAMWNGSSLSDAGPPPISRSGAASMPSSPKQARKMSIQDSLALQPKLTRHKELASENINLRTRKYSSSSLSHMGAYSRSLPRLYRATENQLTPLSLPPRNSLGNSKRTKLGEKDLPHSVIDNDNYLNFSSLSSGALPYKTSASEGNPYVSSTLSVPASPRVARKMLLASTSSCASDDFDQASYVGTNPSHSLLAGESDRVFATRRNFSCGSVEFDEADLESLRQASGTPQPALRERKSSISSISGRDDLMDYHRRQREERLREQEMERLERQRLETILSLCAEYTKPDSRLSTGTTVEDVQKINKELEKLQLSDEESVFEEALMSPDTRYRCHRKDSLPDADLASCGSLSQSSASFFTPRSTRNDELLSDLTRTPPPPSSTFPKASSESSYLSILPKTPEGISEEQRSQELAAMEETRIVILNNLEELKQKIKDINDQMDESFRELDMECALLDGEQKSETTELMKEKEILDHLNRKIAELEKNIVGEKTKEKVKLDAEREKLERLQELYSEQKTQLDNCPESMREQLQQQLKRDADLLDVESKHFEDLEFQQLEHESRLDEEKENLTQQLLREVAEYQRNIVSRKEKISALKKQANHIVQQAQREQDHFVKEKNNLIMMLQREKENLCNLEKKYSSLSGGKGFPVNPNTLKEGYISVNEINEPCGNSTNLSPSTQFPADADAVATEPATAVLASQPQSKEHFRSLEERKKQHKEGLYLSDTLPRKKTTSSISPHFSSATMGRSITPKAHLPLGQSNSCGSVLPPSLAAMAKDSESRRMLRGYNHQQMSEGHRQKSEFYNRTASESNVYLNSFHYPDHSYKDQAFDTLSLDSSDSMETSISACSPDNISSASTSNIARIEEMERLLKQAHAEKTRLLESREREMEAKKRALEEEKRRREILEKRLQEETSQRQKLIEKEVKIRERQRAQARPLTRYLPVRKEDFDLRSHVETAGHNIDTCYHVSITEKTCRGFLIKMGGKIKTWKKRWFVFDRNKRTFSYYADKHETKLKGVIYFQAIEEVYYDHLKNANKSPNPLLTFSVKTHDRIYYMVAPSPEAMRIWMDVIVTGAEGYTHFLL [PHLDB2]”, the “solubility in G1/S (log2)” value in the data set on HeLa Kyoto [1] was -0.28. Further, the figures for the melting temperature in the data set on HeLa Kyoto [2] (cell cycle stage: G1/S) and in the data set with HeLa Kyoto [2] (cell cycle stage: mitosis) were 48.9 °C and 49.1 °C, respectively. In addition, the “solubility change mitosis (log2)” value in the data set on HeLa Kyoto [3] is 0.164. Also, the results for the thermal stability score in the data set on HeLa Kyoto [4] (setting [5]) and with HeLa Kyoto [4] (cell cycle stage: mitosis) were -0.165 and 1.44, respectively.
